Data: US20050058639A1 (AstraZeneca / MedImmune, published 2005)

Assays:
[1] = target: T1, human monocyte chemo-attractant protein-1 (MCP-1) (human, UniProt P13500 24-99); assay: cell-based or functional assay
[2] = target: T1, human monocyte chemo-attractant …; assay: ELISA, coated antigen; ELISA, purified clone 1:50 on coated hMCP-1 (2 ug/mL), cross-reactivity panel
Procedure: Determining cross-reactivity of anti-MCP-1 antibodies with other chemokines. ELISA plates (Fisher Cat. No. 12-565-136) were coated with 50 μl/well of MCP-1, MCP-2, MCP-3, MCP-4, RANTES, GRO-alpha, MIP-1 alpha, eotaxin, rat MCP-1 and mouse JE (2 μg/ml) in coating buffer (0.1 M carbonate buffer, pH 9.6, NaHCO₃ 8.4 g/L, then incubated at 4° C. overnight. After incubation, the plates were washed with washing buffer (0.05% Tween 20 in PBS) three times. 200 μL/well blocking buffer (0.5% BSA, 0.1% Tween 20, 0.01% Thimerosal in 1×PBS) were added and the plates incubated at room temperature for 1 hour. After incubation, the plates were washed with washing buffer three times. 50 μL/well of hybridoma supernatants, and positive and negative controls (positive control was anti-MCP-1 antibody purchased from R&D Sciences, and negative control was an antibody to Keyhole Limpet Hemocyanin produced at Abgenix) were added and the plates incubated at room temperature for 2 hours. After incubation, the plates were washed three times with washing buffer. […] After incubation, the plates were washed three times with washing buffer and 100 μL/well of TMB (BioFX Lab. Cat. #TMSK-0 100-01) was added and the plates allowed to develop for about 10 minutes.

recombinant human MCP-4 = target: T2, recombinant human MCP-4 (human, UniProt Q99616 24-98, limits assumed); assay: ELISA, coated antigen
T2 construct: also called rhMCP-4
Outline: (§1)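 Plates coated overnight at 4° C with MCP-1, MCP-2, MCP-3, MCP-4, RANTES, GRO-alpha, MIP-1 alpha, eotaxin, rat MCP-1 or mouse JE (2 μg/ml, carbonate buffer pH 9.6), blocked with BSA. Hybridoma supernatants bound 2 hours at room temperature; TMB colour developed about 10 minutes.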

human eotaxin = target: T3, human eotaxin (human, UniProt P51671 24-97); assay: ELISA, coated antigen
T3 construct: also called hEotaxin
Outline: as §1

human MIP-1-alpha = target: T4, human MIP-1-alpha (human, UniProt P10147 24-92, limits assumed); assay: ELISA, coated antigen
T4 construct: also called hMIP-1-alpha
T4 sequence (looked up): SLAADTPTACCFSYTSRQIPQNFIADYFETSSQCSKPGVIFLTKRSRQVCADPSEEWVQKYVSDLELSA
Outline: as §1

human RANTES = target: T5, human RANTES (human, UniProt P13501 24-91); assay: ELISA, coated antigen
T5 construct: also called hRANTES
T5 sequence (looked up): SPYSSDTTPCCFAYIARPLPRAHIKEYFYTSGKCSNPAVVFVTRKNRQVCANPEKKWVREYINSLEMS
Outline: as §1

human GRO/MGSA = target: T6, human GRO/MGSA (human, UniProt P09341 35-107); assay: ELISA, coated antigen
T6 construct: also called hGRO/MGSA; GRO-alpha
T6 sequence (looked up): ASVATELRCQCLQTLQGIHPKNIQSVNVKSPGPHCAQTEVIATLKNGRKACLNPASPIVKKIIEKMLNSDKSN
Outline: as §1

recombinant human MCP-3 = target: T7, recombinant human MCP-3 (human, UniProt P80098 24-99); assay: ELISA, coated antigen
T7 construct: also called rhMCP-3
Outline: as §1

rat MCP-1 = rat MCP-1 (rat, UniProt P14844 24-148); assay: ELISA, coated antigen
Outline: as §1

recombinant human MCP-2 = target: T8, recombinant human MCP-2 (human, UniProt P80075 24-99); assay: ELISA, coated antigen
T8 construct: also called rhMCP-2
T8 sequence (looked up): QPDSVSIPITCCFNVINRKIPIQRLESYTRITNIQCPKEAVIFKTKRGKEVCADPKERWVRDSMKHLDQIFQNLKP
Outline: as §1

[3] = target: T9, recombinant mouse JE/MCP-1 (mouse, UniProt P10148 24-148); assay: ELISA, coated antigen
T9 construct: also called rmJE/MCP-1
Outline: as §1

[4] = target: T1, human monocyte chemo-attractant …; assay: Biacore, mAb immobilized, MCP-1 injected; Biacore, 25 C, native MCP-1 injected over immobilized mAb
Procedure: Determination of anti-MCP-1 antibody affinity using Biacore analysis. The antibody/MCP-1 interaction analysis was performed at 25° C. using two CM5 chips docked in Biacore 3000 optical biosensors. Individual flow cells on each chip were activated with a 7-minute injection of NHS/EDC, carbohydrazide was coupled through the NHS ester using a 7-minute injection, and the residual activated groups were blocked with a 7-minute injection of ethanolamine. The monosaccharide residues of each antibody were oxidized using 1 mM sodium metaperiodate in 100 mM sodium acetate, pH 5.5 at 4° C. for 30 minutes. The oxidized antibody was desalted into 100 mM sodium acetate, pH 5.0, to couple the antibody to the carbohydrazide-modified surface. The mAb surfaces were stabilized by reducing the hydrazone bond with 0.1 M sodium cyanoborohydride. The antigen/antibody interaction was tested by injecting 0, 0.049, 0.15, 0.4, 1.3, 4 and 12 nM of MCP-1 (Peprotech, N.J.) in running buffer (10 mM HEPES, 150 mM NaCl, 0.005% surfactant, 200 μg/ml BSA, pH 7.4). The surfaces were regenerated with a 12-second pulse of 15 mM H₃PO₄. The antigen/antibody interaction was tested by injecting duplicate antigen samples diluted in running buffer (10 mM HEPES, […], 0.005% surfactant, 200 μg/mL BSA, pH 7.4), in a 300-fold concentration range. The surfaces were regenerated with a 12-second pulse of 15 mM H₃PO₄. To determine the kinetics of each interaction, the data sets were fit globally to a 1:1 interaction model that included a parameter for mass transport.

[5] = target: T1, human monocyte chemo-attractant …; assay: ELISA, hybridoma supernatant on coated MCP-1; ELISA, hybridoma supernatant on plate-coated non-reduced MCP-1 (2 ug/mL)
Procedure: Selection of candidate antibodies for ELISA. After 14 days of culture, hybridoma supernatants were screened for MCP-1-specific monoclonal antibodies. The ELISA plates (Fisher, Cat. No. 12-565-136) were coated with 50 μl/well of MCP-1 (2 μg/mL) in Coating Buffer (0.1 M Carbonate Buffer, pH 9.6, NaHCO₃8.4 g/L), then incubated at 4° C. overnight. After incubation, the plates were washed with Washing Buffer (0.05% Tween 20 in PBS) three times. 200 μl/well Blocking Buffer (0.5% BSA, 0.1% Tween 20, 0.01% Thimerosal in 1× PBS) were added and the plates incubated at room temperature for 1 hour. After incubation, the plates were washed with Washing Buffer three times. 50 μL/well of hybridoma supernatants, and positive and negative controls were added and the plates incubated at room temperature for 2 hours.
The positive control used throughout was XMG2 MCP-1 Group 1, footpad N160-7 and the negative control was XMG2 KLH Group 1, footpad L627-6. After incubation, the plates were washed three times with Washing Buffer. […] In the secondary screen, three sets of samples (positives in first screening) were screened, one set for hIgG detection, one set for hKappa detection, and one set for hlambda detection. After incubation, the plates were washed three times with Washing Buffer. 100 μL/well of TMB (BioFX Lab. Cat. #TMSK-0100-01) were added and the plates allowed to develop for about 10 minutes (until negative control wells barely started to show color), then 50 μL/well stop solution (TMB Stop Solution (BioFX Lab. Cat. #STPR-0100-01) were added and the plates read on an ELISA plate reader at wavelength 450 nm. The OD readings from the positive wells are presented in Table 9.

[6] = target: T1, human monocyte chemo-attractant …; assay: ELISA, hybridoma supernatant on coated MCP-1
[7] = target: T1, human monocyte chemo-attractant …; assay: ELISA, coated antigen
Outline: as §1

T7 sequence (P80098 24-99 limits assumed): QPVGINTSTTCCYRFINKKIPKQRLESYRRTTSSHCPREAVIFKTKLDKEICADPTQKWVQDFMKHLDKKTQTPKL
T3 sequence (P51671 24-97 limits assumed): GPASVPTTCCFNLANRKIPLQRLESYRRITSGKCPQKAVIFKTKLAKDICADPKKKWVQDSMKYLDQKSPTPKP
Sequence of rat MCP-1 (P14844 24-148 limits assumed): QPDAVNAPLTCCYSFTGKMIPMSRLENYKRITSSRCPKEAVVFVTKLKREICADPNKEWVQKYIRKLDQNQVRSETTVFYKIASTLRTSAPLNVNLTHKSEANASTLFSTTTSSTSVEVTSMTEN
T9 sequence (P10148 24-148 limits assumed): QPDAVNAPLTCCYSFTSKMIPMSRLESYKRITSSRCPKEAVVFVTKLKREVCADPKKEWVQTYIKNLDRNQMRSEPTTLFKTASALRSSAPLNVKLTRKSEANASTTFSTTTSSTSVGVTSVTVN
T2 sequence (Q99616 24-98 limits assumed): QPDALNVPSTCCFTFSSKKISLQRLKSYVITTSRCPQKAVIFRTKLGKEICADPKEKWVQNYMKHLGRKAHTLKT
T1 sequence (P13500 24-99): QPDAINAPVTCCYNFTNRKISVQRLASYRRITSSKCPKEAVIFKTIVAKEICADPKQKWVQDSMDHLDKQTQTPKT

B1: anti-MCP-1 mAb 1.7.1 (antibody, human IgG2, kappa, V domains shown)
VH: QVQLVQSGAEVKKPGASVKVSCKVSGYTLTELSMHWVRQAPGKGLEWMGGFDPEDGETIYAQKFQGRVSMTEDTSTDTAYMELSSLRSEDTAVYFCATNEFWSGYFDYWGQGTLVTVSS
VL: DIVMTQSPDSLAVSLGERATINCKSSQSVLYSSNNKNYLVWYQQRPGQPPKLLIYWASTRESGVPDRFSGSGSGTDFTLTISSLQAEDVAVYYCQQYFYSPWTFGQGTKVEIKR
notes: also called 1.7.2
IC50 Ca++ Flux [1]: 0.11 µg/mL | IC50 Chemotaxis [1]: 0.35 µg/mL | ELISA OD [2]: 1.17 OD450 | ELISA OD (recombinant human MCP-4): 0.041 OD450 | ELISA OD (human eotaxin): 0.04 OD450 | ELISA OD (human MIP-1-alpha): 0.04 OD450 | ELISA OD (human RANTES): 0.039 OD450 | ELISA OD (human GRO/MGSA): 0.041 OD450 | ELISA OD (recombinant human MCP-3): 0.053 OD450 | ELISA OD (rat MCP-1): 0.042 OD450 | ELISA OD (recombinant human MCP-2): 0.044 OD450 | ELISA OD [3]: 0.041 OD450 | Kd [4]: 0.0049 nM | ELISA OD-MCP-1 [5]: 3.52 OD450

B2: anti-MCP-1 mAb 2.3.1 (antibody, V domains shown)
VH: QVQLVQSGAEVKKPGASVKVSCKVSGYTLTELSMHWVRQAPGKGLEWMGGFDPEDDETIYAQKFQGRVTMTEDTSTHTAYMELSSLRSEDTAVYYCATHDFWSAYFYYWGQGTLVTVSS
VL: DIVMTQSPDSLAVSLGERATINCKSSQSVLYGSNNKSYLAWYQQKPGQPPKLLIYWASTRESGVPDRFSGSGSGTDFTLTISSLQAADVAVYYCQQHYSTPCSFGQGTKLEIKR
IC50 Ca++ Flux [1]: 0.14 µg/mL | IC50 Chemotaxis [1]: 0.58 µg/mL | ELISA OD (recombinant human MCP-4): 0.064 OD450 | ELISA OD (human eotaxin): 0.045 OD450 | ELISA OD (human MIP-1-alpha): 0.067 OD450 | ELISA OD (human RANTES): 0.055 OD450 | ELISA OD (human GRO/MGSA): 0.062 OD450 | ELISA OD (recombinant human MCP-3): 0.059 OD450 | ELISA OD (rat MCP-1): 0.058 OD450 | ELISA OD (recombinant human MCP-2): 0.052 OD450 | ELISA OD [3]: 0.054 OD450 | Kd [4]: 0.096 nM | ELISA OD-MCP-1 [5]: 3.88 OD450

B3: anti-MCP-1 mAb 3.7.1 (antibody, human IgG2, kappa, V domains shown)
VH: QVQLVQSGAEVKKPGASVKVSCKVSGYTLTELSMHWVRQTPGKGLEWMGGFDPEDGETIYAQKFQDRVTMTEDTSTDTAYMELSSLRSEDTAVYYCATNDFWTGYYDYWGQGTLVTVSS
VL: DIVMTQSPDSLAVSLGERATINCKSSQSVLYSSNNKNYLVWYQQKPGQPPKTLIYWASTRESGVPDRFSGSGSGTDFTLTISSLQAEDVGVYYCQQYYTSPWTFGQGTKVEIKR
notes: also called 3.7.2
IC50 Ca++ Flux [1]: 0.094 µg/mL | IC50 Chemotaxis [1]: 0.98 µg/mL | ELISA OD [2]: 1.28 OD450 | ELISA OD (recombinant human MCP-4): 0.048 OD450 | ELISA OD (human eotaxin): 0.043 OD450 | ELISA OD (human MIP-1-alpha): 0.049 OD450 | ELISA OD (human RANTES): 0.067 OD450 | ELISA OD (human GRO/MGSA): 0.045 OD450 | ELISA OD (recombinant human MCP-3): 0.048 OD450 | ELISA OD (rat MCP-1): 0.048 OD450 | ELISA OD (recombinant human MCP-2): 0.043 OD450 | ELISA OD [3]: 0.046 OD450 | Kd [4]: 0.0048 nM | ELISA OD-MCP-1 [5]: 4 OD450

B4: anti-MCP-1 mAb 1.4.1 (antibody, V domains shown)
VH: QSGPGLVKPSQTLSLTCAISGDSVSSNSAAWNWIRQSPSRGLEWLGRTYYRSKWYSDHAVSVRSRITIYPDTSKNQFSLQLNSVTPEDTAVYYCARDRISGTYVGMDVWGQGTTVTVSS
VL: DIGMTQTPLSLSVTPGQPASISCKSSQSLLYSDGKTYLYWYLQKPGQPPQHLIYEVSNRFSGVPDRFSGSGSGTDFTLKISRVEADDVGVYYCMQTIHLPLTFGGGTKVEIQR
ELISA OD-MCP-1 [6]: 4 OD450 | IC50 Ca++ Flux [1]: 0.11 µg/mL | IC50 Chemotaxis [1]: 0.51 µg/mL | ELISA OD (recombinant human MCP-4): 0.045 OD450 | ELISA OD (human eotaxin): 0.043 OD450 | ELISA OD (human MIP-1-alpha): 0.041 OD450 | ELISA OD (human RANTES): 0.046 OD450 | ELISA OD (human GRO/MGSA): 0.044 OD450 | ELISA OD (recombinant human MCP-3): 0.049 OD450 | ELISA OD (rat MCP-1): 0.05 OD450 | ELISA OD (recombinant human MCP-2): 0.046 OD450 | ELISA OD [3]: 0.042 OD450 | ELISA OD [7]: 0.738 OD450

B5: anti-MCP-1 mAb 1.9.1 (antibody, V domains shown)
VH: QVQLVQSGAEVKKPGASVKVSCKVSGYTLTELSMHWVRQAPGKGLEWMGGFDPEDGETINAQKFQGRVTMTEDTSTDTGYMELSSLRSEDTAVYYCATDPGGYSGYFDHWGQGTLVTVSS
VL: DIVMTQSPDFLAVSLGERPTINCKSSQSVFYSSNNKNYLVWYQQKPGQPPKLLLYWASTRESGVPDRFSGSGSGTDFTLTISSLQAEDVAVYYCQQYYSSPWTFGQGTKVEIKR
IC50 Ca++ Flux [1]: 1.2 µg/mL | IC50 Chemotaxis [1]: 35 µg/mL | ELISA OD [2]: 0.446 OD450 | ELISA OD (recombinant human MCP-4): 0.042 OD450 | ELISA OD (human eotaxin): 0.042 OD450 | ELISA OD (human MIP-1-alpha): 0.044 OD450 | ELISA OD (human RANTES): 0.042 OD450 | ELISA OD (human GRO/MGSA): 0.043 OD450 | ELISA OD (recombinant human MCP-3): 0.044 OD450 | ELISA OD (rat MCP-1): 0.065 OD450 | ELISA OD (recombinant human MCP-2): 0.04 OD450 | ELISA OD [3]: 0.053 OD450 | Kd [4]: 0.096 nM | ELISA OD-MCP-1 [5]: 3.66 OD450
